According to US20210238260A1:

Target: Antithrombin III (plasma purified human AT-III), in complex with unfractionated full-length heparin (human) (UniProt P01008)
Test: inhibition of FIXa by AT-III/UFH, residual activity on Mesyl-D-CHG-Gly-Arg-AMC

| Substance | kapp (second-order rate constant for inhibition) |
| --- | --- |
| Catalyst Biosciences WT FIXa (from UniProt P00740 47-191; P00740 227-461) (enzyme) | 2.4e+07 M⁻¹ s⁻¹ |
| FIXa K293E (from UniProt P00740 47-191; P00740 227-461) (enzyme) | 1.2e+06 M⁻¹ s⁻¹ |
| FIXa K293A/R338A/R403A (from UniProt P00740 47-191; P00740 227-461) (enzyme) | 47000 M⁻¹ s⁻¹ |
| FIXa D203N/F205T (from UniProt P00740 47-191; P00740 227-461) (enzyme) | 810000 M⁻¹ s⁻¹ |
| FIXa Y155F/R318Y/R338E/R403E (from UniProt P00740 47-191; P00740 227-461) (enzyme) | 1000 M⁻¹ s⁻¹ |
| FIXa R403E (from UniProt P00740 47-191; P00740 227-461) (enzyme) | 110000 M⁻¹ s⁻¹ |
| FIXa D203N/F205T/K228N (from UniProt P00740 47-191; P00740 227-461) (enzyme) | 1.1e+06 M⁻¹ s⁻¹ |
| FIXa R318A/R403A (from UniProt P00740 47-191; P00740 227-461) (enzyme) | 17000 M⁻¹ s⁻¹ |
| FIXa R338A/R403A (from UniProt P00740 47-191; P00740 227-461) (enzyme) | 840000 M⁻¹ s⁻¹ |
| FIXa K293A/R403A (from UniProt P00740 47-191; P00740 227-461) (enzyme) | 81000 M⁻¹ s⁻¹ |
| FIXa D203N/F205T/R338A (from UniProt P00740 47-191; P00740 227-461) (enzyme) | 860000 M⁻¹ s⁻¹ |
| FIXa R318Y/E410N (from UniProt P00740 47-191; P00740 227-461) (enzyme) | 1.1e+06 M⁻¹ s⁻¹ |
| BeneFIX Coagulation FIX (T148A), activated (FIXa) (from UniProt P00740 47-191; P00740 227-461) (enzyme) | 1.6e+07 M⁻¹ s⁻¹ |
| FIXa D203N/F205T/R338E/R403E (from UniProt P00740 47-191; P00740 227-461) (enzyme) | 2000 M⁻¹ s⁻¹ |
| FIXa D85N/D203N/F205T (from UniProt P00740 47-191; P00740 227-461) (enzyme) | 2.7e+06 M⁻¹ s⁻¹ |
| FIXa R312Y (from UniProt P00740 47-191; P00740 227-461) (enzyme) | 230000 M⁻¹ s⁻¹ |
| FIXa D203N/F205T/R318Y (from UniProt P00740 47-191; P00740 227-461) (enzyme) | 61000 M⁻¹ s⁻¹ |
| FIXa N260S (from UniProt P00740 47-191; P00740 227-461) (enzyme) | 1.1e+06 M⁻¹ s⁻¹ |
| FIXa D104N/K106S/N260S (from UniProt P00740 47-191; P00740 227-461) (enzyme) | 7e+06 M⁻¹ s⁻¹ |
| FIXa T148A (from UniProt P00740 47-191; P00740 227-461) (enzyme) | 1.6e+07 M⁻¹ s⁻¹ |
| FIXa R403E/E410N (from UniProt P00740 47-191; P00740 227-461) (enzyme) | 4.8e+06 M⁻¹ s⁻¹ |
| FIXa R318A (from UniProt P00740 47-191; P00740 227-461) (enzyme) | 690000 M⁻¹ s⁻¹ |
| FIXa K293E/R338E/R403E (from UniProt P00740 47-191; P00740 227-461) (enzyme) | 31000 M⁻¹ s⁻¹ |
| FIXa R318Y (from UniProt P00740 47-191; P00740 227-461) (enzyme) | 640000 M⁻¹ s⁻¹ |

Continued, values first:

| kapp (second-order rate constant for inhibition) | Substance |
| --- | --- |
| 32000 M⁻¹ s⁻¹ | FIXa Y155F/R338E/R403E/E410N (from UniProt P00740 47-191; P00740 227-461) (enzyme) |
| 68000 M⁻¹ s⁻¹ | FIXa R338E/R403E (from UniProt P00740 47-191; P00740 227-461) (enzyme) |
| 360000 M⁻¹ s⁻¹ | FIXa D203N/F205T/R338E (from UniProt P00740 47-191; P00740 227-461) (enzyme) |
| 6.3e+06 M⁻¹ s⁻¹ | FIXa R338E/E410N (from UniProt P00740 47-191; P00740 227-461) (enzyme) |
| 270000 M⁻¹ s⁻¹ | FIXa R338E (from UniProt P00740 47-191; P00740 227-461) (enzyme) |
| 280000 M⁻¹ s⁻¹ | FIXa R318Y/R338E/E410N (from UniProt P00740 47-191; P00740 227-461) (enzyme) |
| 16000 M⁻¹ s⁻¹ | FIXa R318E (from UniProt P00740 47-191; P00740 227-461) (enzyme) |
| 1200 M⁻¹ s⁻¹ | FIXa R318Y/R338E/R403E (from UniProt P00740 47-191; P00740 227-461) (enzyme) |
| 210000 M⁻¹ s⁻¹ | FIXa D104N/K106S/R318Y/R338E/E410N (from UniProt P00740 47-191; P00740 227-461) (enzyme) |
| 1.4e+06 M⁻¹ s⁻¹ | FIXa R403A (from UniProt P00740 47-191; P00740 227-461) (enzyme) |
| 130000 M⁻¹ s⁻¹ | FIXa R338E/R403E/E410N (from UniProt P00740 47-191; P00740 227-461) (enzyme) |
| 2e+06 M⁻¹ s⁻¹ | FIXa D203N/F205T/E410N (from UniProt P00740 47-191; P00740 227-461) (enzyme) |
| 1.2e+06 M⁻¹ s⁻¹ | FIXa K228N/R318Y (from UniProt P00740 47-191; P00740 227-461) (enzyme) |
| 42000 M⁻¹ s⁻¹ | FIXa K228N/R338E/R403E (from UniProt P00740 47-191; P00740 227-461) (enzyme) |

Target: plasma purified human AT-III (antithrombin III) in complex with unfractionated heparin (human) (UniProt P01008)
Test: residual FIXa activity on Mesyl-D-CHG-Gly-Arg-AMC after timed incubation with AT-III/UFH (0-500 nM AT-III, 1 uM UFH); kapp from K0.5

| Substance | kapp (apparent second-order rate constant for inhibition) |
| --- | --- |
| FIXa-R318Y/R338E/R403E/E410N/T412V (from UniProt P00740 47-191; P00740 227-461) (enzyme) | 2900 M⁻¹ s⁻¹ |
| FIXa-Y155F/K247N/N249S/R318Y/R403E/E410N (from UniProt P00740 47-191; P00740 227-461) (enzyme) | 7300 M⁻¹ s⁻¹ |
| FIXa-K247N/N249S/R338E/R403E/E410N (from UniProt P00740 47-191; P00740 227-461) (enzyme) | 21000 M⁻¹ s⁻¹ |
| FIXa-R318Y/R338E/T412A (from UniProt P00740 47-191; P00740 227-461) (enzyme) | 350000 M⁻¹ s⁻¹ |
| FIXa-Y155F/K247N/N249S/N260S/R318Y/R338E/R403E/E410N (from UniProt P00740 47-191; P00740 227-461) (enzyme) | 430 M⁻¹ s⁻¹ |
| FIXa-D104N/K106S/K228N/K247N/N249S/R318Y/R338E/R403E/E410N (from UniProt P00740 47-191; P00740 227-461) (enzyme) | 680 M⁻¹ s⁻¹ |

Continued, values first:

| kapp (apparent second-order rate constant for inhibition) | Substance |
| --- | --- |
| 1100 M⁻¹ s⁻¹ | FIXa-R318Y/R338E/N346D/R403E/E410N (from UniProt P00740 47-191; P00740 227-461) (enzyme) |
| 32000 M⁻¹ s⁻¹ | FIXa-R318Y/R338E/T343R/R403E/E410N (from UniProt P00740 47-191; P00740 227-461) (enzyme) |
